# Results published in the supplement of paper PMC10567573.
# B1: MYOZ1 (parent)
# chain: FSDSSMDHFQKFLPTVGGQLGTAG
# Variants of: B1
# Assay: protein stability index of a GFP-peptide fusion (GPS, HEK-293T) (PSI 1-6); higher = more stable
# Details: c terminus: a fixed tail appended
# 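Further: lentivirally expressed fusions sorted by FACS into six bins by GFP to DsRed ratio, PSI derived from sequencing read proportions per bin multiplied by bin number.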
row,Variant,protein stability index
1,FSDSSMDHFQKFQPTVGGQLGTAG,3.18
2,FSDSSMDHFQKFMPTVGGQLGTAG,3.29
3,FSDSSMDHFQKFGPTVGGQLGTAG,3.44
4,FSDSSMDHFQKFYPTVGGQLGTAG,2.76
5,FSDSSMDHFQKFCPTVGGQLGTAG,2.75
6,FSDSSMDHFQKFDPTVGGQLGTAG,3.44
7,FSDSSMDHFQKFHPTVGGQLGTAG,3.29
8,FSDSSMDHFQKFKPTVGGQLGTAG,3.53
9,FSDSSMDHFQKFRPTVGGQLGTAG,2.92
10,FSDSSMDHFQKFAPTVGGQLGTAG,2.52
11,FSDSSMDHFQKFTPTVGGQLGTAG,3.53
12,FSDSSMDHFQKFSPTVGGQLGTAG,2.76
13,FSDSSMDHFQKFIPTVGGQLGTAG,1.9
14,FSDSSMDHFQKFVPTVGGQLGTAG,2.97
15,FSDSSMDHFQKFEPTVGGQLGTAG,4.42
16,FSDSSMDHFQKFWPTVGGQLGTAG,1.82
17,FSDSSMDHFQKFPPTVGGQLGTAG,3.06
18,FSDSSMDHFQKFFPTVGGQLGTAG,3.09
19,FSDSSMDHFQKFNPTVGGQLGTAG,3.1
20,FSDSSMDHFQKALPTVGGQLGTAG,3.98
21,FSDSSMDHFQKYLPTVGGQLGTAG,2.77
22,FSDSSMDHFQKDLPTVGGQLGTAG,4.08
23,FSDSSMDHFQKRLPTVGGQLGTAG,3.5
24,FSDSSMDHFQKHLPTVGGQLGTAG,3.28

row,Variant,protein stability index
1,FSDSSMDHFQKQLPTVGGQLGTAG,3.04
2,FSDSSMDHFQKKLPTVGGQLGTAG,3.67
3,FSDSSMDHFQKGLPTVGGQLGTAG,3.15
4,FSDSSMDHFQKCLPTVGGQLGTAG,2.92
5,FSDSSMDHFQKELPTVGGQLGTAG,4.6
6,FSDSSMDHFQKMLPTVGGQLGTAG,3.11
7,FSDSSMDHFQKTLPTVGGQLGTAG,3.16
8,FSDSSMDHFQKPLPTVGGQLGTAG,3.61
9,FSDSSMDHFQKWLPTVGGQLGTAG,1.85
10,FSDSSMDHFQKLLPTVGGQLGTAG,2.88
11,FSDSSMDHFQKSLPTVGGQLGTAG,3.67
12,FSDSSMDHFQKNLPTVGGQLGTAG,3.68
13,FSDSSMDHFQKILPTVGGQLGTAG,2.08
14,FSTSSMDHFQKFLPTVGGQLGTAG,1.96
15,FSRSSMDHFQKFLPTVGGQLGTAG,1.49
16,FSYSSMDHFQKFLPTVGGQLGTAG,2.02
17,FSSSSMDHFQKFLPTVGGQLGTAG,1.97
18,FSWSSMDHFQKFLPTVGGQLGTAG,2.06
19,FSVSSMDHFQKFLPTVGGQLGTAG,1.96
20,FSQSSMDHFQKFLPTVGGQLGTAG,2.27
21,FSDSSMDHFQKFLFTVGGQLGTAG,2.83
22,FSDSSMDHFQKFLDTVGGQLGTAG,1.61
23,FSDSSMDHFQKFLCTVGGQLGTAG,1.41
24,FSDSSMDHIQKFLPTVGGQLGTAG,2.46

row,Variant,protein stability index
1,FSDSSMDHLQKFLPTVGGQLGTAG,2.16
2,FSDSSMDHEQKFLPTVGGQLGTAG,4.4
3,FSDSSMDHDQKFLPTVGGQLGTAG,4.52
4,FSDSSMDHVQKFLPTVGGQLGTAG,3.71
5,FSDSSMDHWQKFLPTVGGQLGTAG,1.89
6,FSDSSMDHYQKFLPTVGGQLGTAG,2.78
7,FSDSSMDHHQKFLPTVGGQLGTAG,2.57
8,FSDSSMDHRQKFLPTVGGQLGTAG,2.6
9,FSDSSMDHAQKFLPTVGGQLGTAG,2.71
10,FSDSSMDHQQKFLPTVGGQLGTAG,3.88
11,FSDSSMDHNQKFLPTVGGQLGTAG,3.84
12,FSDSSMDHSQKFLPTVGGQLGTAG,3.61
13,FSDSSMDHCQKFLPTVGGQLGTAG,2.92
14,FSDSSMDHGQKFLPTVGGQLGTAG,4.56
15,FSDSSMDHTQKFLPTVGGQLGTAG,2.48
16,FSDSSMDHMQKFLPTVGGQLGTAG,3.37
17,FSDSSMDHKQKFLPTVGGQLGTAG,3.09
18,FSDSSMDHPQKFLPTVGGQLGTAG,4.38
19,FSDSPMDHFQKFLPTVGGQLGTAG,2.08
20,FSDSRMDHFQKFLPTVGGQLGTAG,1.05
21,FSDSAMDHFQKFLPTVGGQLGTAG,3.02
22,FSDSQMDHFQKFLPTVGGQLGTAG,2.19
23,FSDSKMDHFQKFLPTVGGQLGTAG,2.07
24,FSDSMMDHFQKFLPTVGGQLGTAG,1.82

row,Variant,protein stability index
1,FSDSFMDHFQKFLPTVGGQLGTAG,2.22
2,FSDSEMDHFQKFLPTVGGQLGTAG,2.91
3,FSDSGMDHFQKFLPTVGGQLGTAG,1.88
4,FSDSCMDHFQKFLPTVGGQLGTAG,2.19
5,FSDSWMDHFQKFLPTVGGQLGTAG,2.38
6,FSDSDMDHFQKFLPTVGGQLGTAG,2.58
7,FSDSHMDHFQKFLPTVGGQLGTAG,2.25
8,FSDSLMDHFQKFLPTVGGQLGTAG,3.12
9,FSDSTMDHFQKFLPTVGGQLGTAG,2.98
10,FSDSNMDHFQKFLPTVGGQLGTAG,3.11
11,FSDSSEDHFQKFLPTVGGQLGTAG,3
12,FSDSSIDHFQKFLPTVGGQLGTAG,2.04
13,FSDSSKDHFQKFLPTVGGQLGTAG,3.08
14,FSDSSSDHFQKFLPTVGGQLGTAG,2.26
15,FSDSSYDHFQKFLPTVGGQLGTAG,2.32
16,FSDSSWDHFQKFLPTVGGQLGTAG,1.44
17,FSDSSVDHFQKFLPTVGGQLGTAG,2.23
18,FSDSSFDHFQKFLPTVGGQLGTAG,3.55
19,FSDSSHDHFQKFLPTVGGQLGTAG,2.25
20,FSDSSCDHFQKFLPTVGGQLGTAG,1.96
21,FSDSSGDHFQKFLPTVGGQLGTAG,2.86
22,FSDSSPDHFQKFLPTVGGQLGTAG,2.56
23,FSDSSRDHFQKFLPTVGGQLGTAG,2.66
24,FSDSSTDHFQKFLPTVGGQLGTAG,2.58

row,Variant,protein stability index
1,FSDSSADHFQKFLPTVGGQLGTAG,2.65
2,FSDSSNDHFQKFLPTVGGQLGTAG,2.78
3,FSDSSQDHFQKFLPTVGGQLGTAG,3
4,FSDSSDDHFQKFLPTVGGQLGTAG,3.22
5,FSDSSLDHFQKFLPTVGGQLGTAG,2.29
6,FSDGSMDHFQKFLPTVGGQLGTAG,2.15
7,FSDWSMDHFQKFLPTVGGQLGTAG,2.89
8,FSDFSMDHFQKFLPTVGGQLGTAG,2.87
9,FSDRSMDHFQKFLPTVGGQLGTAG,2.51
10,FSDVSMDHFQKFLPTVGGQLGTAG,3.14
11,FSDNSMDHFQKFLPTVGGQLGTAG,2.32
12,FSDYSMDHFQKFLPTVGGQLGTAG,1.61
13,FSDISMDHFQKFLPTVGGQLGTAG,3.59
14,FSDESMDHFQKFLPTVGGQLGTAG,2.94
15,FSDASMDHFQKFLPTVGGQLGTAG,2.09
16,FSDMSMDHFQKFLPTVGGQLGTAG,1.79
17,FSDDSMDHFQKFLPTVGGQLGTAG,2.15
18,FSDCSMDHFQKFLPTVGGQLGTAG,1.43
19,FSDPSMDHFQKFLPTVGGQLGTAG,2.42
20,FSDQSMDHFQKFLPTVGGQLGTAG,1.92
21,FSDKSMDHFQKFLPTVGGQLGTAG,2.12
22,FSDHSMDHFQKFLPTVGGQLGTAG,2.35
23,FSDTSMDHFQKFLPTVGGQLGTAG,2.65
24,FSDSSMDAFQKFLPTVGGQLGTAG,1.84

row,Variant,protein stability index
1,FSDSSMDKFQKFLPTVGGQLGTAG,2.15
2,FSDSSMDRFQKFLPTVGGQLGTAG,1.61
3,FSDSSMDGFQKFLPTVGGQLGTAG,2.07
4,FSDSSMDNFQKFLPTVGGQLGTAG,2.48
5,FSDSSMDFFQKFLPTVGGQLGTAG,1.38
6,FSDSSMDYFQKFLPTVGGQLGTAG,2.08
7,FSDSSMDCFQKFLPTVGGQLGTAG,1.72
8,FSDSSMDIFQKFLPTVGGQLGTAG,2.21
9,FSDSSMDPFQKFLPTVGGQLGTAG,2.36
10,FSDSSMDTFQKFLPTVGGQLGTAG,2.51
11,FSDSSMDEFQKFLPTVGGQLGTAG,2.34
12,FSDSSMDVFQKFLPTVGGQLGTAG,1.76
13,FSDSSMDDFQKFLPTVGGQLGTAG,2.49
14,FSDSSMDWFQKFLPTVGGQLGTAG,2.22
15,FSDSSMDSFQKFLPTVGGQLGTAG,1.53
16,FSDSSMDLFQKFLPTVGGQLGTAG,1.35
17,FSDSSMDQFQKFLPTVGGQLGTAG,2.58
18,FSDSSMIHFQKFLPTVGGQLGTAG,2.3
19,FSDSSMAHFQKFLPTVGGQLGTAG,1.38
20,FSDSSMPHFQKFLPTVGGQLGTAG,2.38
21,FSDSSMGHFQKFLPTVGGQLGTAG,1.44
22,FSDSSMMHFQKFLPTVGGQLGTAG,1.38
23,FSDSSMSHFQKFLPTVGGQLGTAG,2.56
24,FSDSSMHHFQKFLPTVGGQLGTAG,1.82

row,Variant,protein stability index
1,FSDSSMQHFQKFLPTVGGQLGTAG,2.02
2,FSDSSMRHFQKFLPTVGGQLGTAG,2.6
3,FSDSSMTHFQKFLPTVGGQLGTAG,2.15
4,FSDSSMCHFQKFLPTVGGQLGTAG,1.9
5,FSDSSMKHFQKFLPTVGGQLGTAG,1.8
6,FSDSSMVHFQKFLPTVGGQLGTAG,2.15
7,FSDSSMEHFQKFLPTVGGQLGTAG,2.02
8,FSDSSMLHFQKFLPTVGGQLGTAG,1.55
9,FSDSSMDHFQDFLPTVGGQLGTAG,3.32
10,FSDSSMDHFQLFLPTVGGQLGTAG,1.67
11,FSDSSMDHFQRFLPTVGGQLGTAG,2.12
12,FSDSSMDHFQMFLPTVGGQLGTAG,1.34
13,FSDSSMDHFQWFLPTVGGQLGTAG,1.02
14,FSDSSMDHFQEFLPTVGGQLGTAG,3.51
15,FSDSSMDHFQYFLPTVGGQLGTAG,2.15
16,FSDSSMDHFQCFLPTVGGQLGTAG,1.8
17,FSDSSMDHFQHFLPTVGGQLGTAG,2.38
18,FSDSSMDHFQIFLPTVGGQLGTAG,2.12
19,FSDSSMDHFQNFLPTVGGQLGTAG,2.56
20,FSDSSMDHFQQFLPTVGGQLGTAG,2.66
21,FSDSSMDHFQGFLPTVGGQLGTAG,3.21
22,FSDSSMDHFQPFLPTVGGQLGTAG,2.46
23,FSDSSMDHFQAFLPTVGGQLGTAG,1.79
24,FSDSSMDHFQSFLPTVGGQLGTAG,2.37

row,Variant,protein stability index
1,FSDSSMDHFQTFLPTVGGQLGTAG,2.45
2,FSDSSMDHFQFFLPTVGGQLGTAG,2.07
3,FSDSSMDHFCKFLPTVGGQLGTAG,2.06
4,FSDSSMDHFYKFLPTVGGQLGTAG,1.47
5,FSDSSMDHFIKFLPTVGGQLGTAG,2.91
6,FSDSSMDHFVKFLPTVGGQLGTAG,1.77
7,FSDSSMDHFAKFLPTVGGQLGTAG,2.33
8,FSDSSMDHFGKFLPTVGGQLGTAG,2.57
9,FSDSSMDHFKKFLPTVGGQLGTAG,2.14
10,FSDSSMDHFTKFLPTVGGQLGTAG,2.15
11,FSDSSMDHFEKFLPTVGGQLGTAG,1.95
12,FSDSSMDHFHKFLPTVGGQLGTAG,2.31
13,FSDSSMDHFMKFLPTVGGQLGTAG,2.02
14,FSDSSMDHFDKFLPTVGGQLGTAG,3.15
15,FSDSSMDHFPKFLPTVGGQLGTAG,3.23
16,FSDSSMDHFFKFLPTVGGQLGTAG,2.3
17,FSDSSMDHFNKFLPTVGGQLGTAG,2.42
18,FSDSSMDHFSKFLPTVGGQLGTAG,2.07
19,FSDSSMDHFRKFLPTVGGQLGTAG,1.13
20,FSDSSMDHFLKFLPTVGGQLGTAG,1.3
